Measurements taken from the supplement of paper PMC10065799, “High-throughput profiling of sequence recognition by tyrosine kinases and SH2 domains using bacterial peptide display” (eLife, 2023).

How the values were obtained:
c-Src SH2 = experiment: SH2 binding enrichment of the phosphorylated peptide, bacterial display (enrichment ratio); higher = better substrate or ligand; peptides without Tyr show the background
SHP2-C SH2 = experiment: as above
Grb2 SH2 = Grb2 SH2 (UniProt P62993); experiment: as above
FGFR1 = FGFR1 (UniProt P11362); experiment: phosphorylation enrichment, bacterial display (enrichment ratio); higher = better substrate or ligand; peptides without Tyr show the background
Jak2 = Jak2 (UniProt O60674); experiment: as above
EPHB2 = EPHB2 (UniProt P29323); experiment: as above
c-Abl (mouse) = experiment: as above
MERTK = MERTK (UniProt Q12866); experiment: as above
FGFR3 = FGFR3 (UniProt P22607); experiment: as above
AncSZ = experiment: as above
Hck = Hck (UniProt P08631); experiment: as above
Fes = Fes (UniProt P07332); experiment: as above
EPHB1 = EPHB1 (UniProt P54762); experiment: as above
Fyn = Fyn (UniProt P06241); experiment: as above
c-Src = experiment: as above
Fer (mouse) = experiment: as above
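Throughout, for SH2 binding enrichment of the phosphorylated peptide, bacterial display: peptide library displayed on the E. coli surface as eCPX fusions, selected cells deep-sequenced, score is each peptide's frequency after selection divided by its frequency in the input.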
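Throughout, for phosphorylation enrichment, bacterial display: 11-residue human phosphosite peptides and single-mutation variants displayed on the E. coli surface, counted by deep sequencing, each peptide's frequency after selection divided by its frequency in the unselected input library; frequency after pTyr selection over input frequency; kinase dosed for 20-30% of maximal phosphorylation in three min.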

Fes, sequence (P07332 whole entry, looked up): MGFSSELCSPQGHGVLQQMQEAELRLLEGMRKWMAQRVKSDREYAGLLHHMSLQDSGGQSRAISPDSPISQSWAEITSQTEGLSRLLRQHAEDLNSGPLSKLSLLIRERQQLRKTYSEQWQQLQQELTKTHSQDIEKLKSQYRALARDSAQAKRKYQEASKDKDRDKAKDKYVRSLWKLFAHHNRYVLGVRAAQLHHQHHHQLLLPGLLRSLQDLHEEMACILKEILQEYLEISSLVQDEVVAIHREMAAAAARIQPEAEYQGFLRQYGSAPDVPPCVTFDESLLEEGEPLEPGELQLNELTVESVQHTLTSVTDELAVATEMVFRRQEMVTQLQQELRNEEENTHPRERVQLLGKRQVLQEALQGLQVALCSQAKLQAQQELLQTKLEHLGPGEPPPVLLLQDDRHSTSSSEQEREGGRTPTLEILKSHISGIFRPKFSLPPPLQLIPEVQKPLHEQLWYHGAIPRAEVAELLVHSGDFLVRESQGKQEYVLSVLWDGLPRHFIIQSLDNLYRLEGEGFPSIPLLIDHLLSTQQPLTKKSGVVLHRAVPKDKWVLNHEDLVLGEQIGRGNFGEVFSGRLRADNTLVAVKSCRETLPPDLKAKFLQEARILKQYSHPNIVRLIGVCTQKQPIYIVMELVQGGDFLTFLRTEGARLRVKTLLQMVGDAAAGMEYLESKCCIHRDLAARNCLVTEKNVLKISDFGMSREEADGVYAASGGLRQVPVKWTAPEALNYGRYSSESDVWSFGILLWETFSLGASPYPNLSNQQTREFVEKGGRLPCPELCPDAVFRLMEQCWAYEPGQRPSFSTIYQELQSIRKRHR
MERTK, sequence (Q12866 whole entry, looked up): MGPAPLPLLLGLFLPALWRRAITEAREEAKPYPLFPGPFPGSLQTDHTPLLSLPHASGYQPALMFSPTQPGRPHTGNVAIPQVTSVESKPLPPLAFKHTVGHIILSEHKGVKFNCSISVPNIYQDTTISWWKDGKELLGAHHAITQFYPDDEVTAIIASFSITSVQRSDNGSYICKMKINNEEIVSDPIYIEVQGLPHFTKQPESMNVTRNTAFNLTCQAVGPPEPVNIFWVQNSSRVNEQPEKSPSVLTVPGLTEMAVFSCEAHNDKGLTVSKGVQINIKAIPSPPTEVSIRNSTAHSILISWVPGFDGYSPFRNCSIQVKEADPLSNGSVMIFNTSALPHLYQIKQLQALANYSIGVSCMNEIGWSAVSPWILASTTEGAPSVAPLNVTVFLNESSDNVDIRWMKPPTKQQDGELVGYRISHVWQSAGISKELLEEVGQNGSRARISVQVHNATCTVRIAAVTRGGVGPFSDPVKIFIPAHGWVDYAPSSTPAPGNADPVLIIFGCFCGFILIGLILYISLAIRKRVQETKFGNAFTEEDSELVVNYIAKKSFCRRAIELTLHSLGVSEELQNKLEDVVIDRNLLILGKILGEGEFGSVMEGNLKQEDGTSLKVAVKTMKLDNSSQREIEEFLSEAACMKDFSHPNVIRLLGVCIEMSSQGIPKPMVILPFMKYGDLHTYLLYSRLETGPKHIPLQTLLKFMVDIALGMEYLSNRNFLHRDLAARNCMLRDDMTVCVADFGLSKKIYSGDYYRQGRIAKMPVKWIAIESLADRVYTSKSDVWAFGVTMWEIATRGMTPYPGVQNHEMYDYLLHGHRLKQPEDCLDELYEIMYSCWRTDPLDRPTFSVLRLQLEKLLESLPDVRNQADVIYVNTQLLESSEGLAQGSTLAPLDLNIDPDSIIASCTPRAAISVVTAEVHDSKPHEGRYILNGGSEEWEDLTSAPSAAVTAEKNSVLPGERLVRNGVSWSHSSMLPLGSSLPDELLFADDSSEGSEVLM
EPHB1, sequence (P54762 whole entry, looked up): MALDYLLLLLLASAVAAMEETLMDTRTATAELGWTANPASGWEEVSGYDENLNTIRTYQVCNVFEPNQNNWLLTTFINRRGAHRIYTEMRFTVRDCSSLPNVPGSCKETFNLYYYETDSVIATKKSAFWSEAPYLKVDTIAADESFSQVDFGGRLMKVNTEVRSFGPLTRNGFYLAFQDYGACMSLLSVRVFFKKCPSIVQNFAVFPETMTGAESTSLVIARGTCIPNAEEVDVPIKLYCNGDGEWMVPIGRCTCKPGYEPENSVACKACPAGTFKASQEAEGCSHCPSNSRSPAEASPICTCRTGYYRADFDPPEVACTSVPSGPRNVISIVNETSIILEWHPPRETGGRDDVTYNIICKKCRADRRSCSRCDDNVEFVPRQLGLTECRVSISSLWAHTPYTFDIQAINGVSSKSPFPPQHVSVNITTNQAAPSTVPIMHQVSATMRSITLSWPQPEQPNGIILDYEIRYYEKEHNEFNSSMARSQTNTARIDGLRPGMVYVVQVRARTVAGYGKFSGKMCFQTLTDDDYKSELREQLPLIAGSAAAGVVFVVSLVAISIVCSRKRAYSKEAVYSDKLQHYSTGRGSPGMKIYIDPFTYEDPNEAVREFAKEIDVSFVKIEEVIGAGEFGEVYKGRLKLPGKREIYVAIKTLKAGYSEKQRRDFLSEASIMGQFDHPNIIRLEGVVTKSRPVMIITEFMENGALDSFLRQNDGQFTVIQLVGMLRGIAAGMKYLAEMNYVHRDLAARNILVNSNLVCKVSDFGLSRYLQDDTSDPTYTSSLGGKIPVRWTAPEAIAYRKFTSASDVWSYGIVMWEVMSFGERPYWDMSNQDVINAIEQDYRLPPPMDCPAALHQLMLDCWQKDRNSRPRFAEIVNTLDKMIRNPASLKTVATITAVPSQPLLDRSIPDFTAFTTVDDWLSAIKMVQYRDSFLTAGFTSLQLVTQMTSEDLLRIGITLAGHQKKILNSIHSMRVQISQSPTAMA
EPHB2, sequence (P29323 whole entry, looked up): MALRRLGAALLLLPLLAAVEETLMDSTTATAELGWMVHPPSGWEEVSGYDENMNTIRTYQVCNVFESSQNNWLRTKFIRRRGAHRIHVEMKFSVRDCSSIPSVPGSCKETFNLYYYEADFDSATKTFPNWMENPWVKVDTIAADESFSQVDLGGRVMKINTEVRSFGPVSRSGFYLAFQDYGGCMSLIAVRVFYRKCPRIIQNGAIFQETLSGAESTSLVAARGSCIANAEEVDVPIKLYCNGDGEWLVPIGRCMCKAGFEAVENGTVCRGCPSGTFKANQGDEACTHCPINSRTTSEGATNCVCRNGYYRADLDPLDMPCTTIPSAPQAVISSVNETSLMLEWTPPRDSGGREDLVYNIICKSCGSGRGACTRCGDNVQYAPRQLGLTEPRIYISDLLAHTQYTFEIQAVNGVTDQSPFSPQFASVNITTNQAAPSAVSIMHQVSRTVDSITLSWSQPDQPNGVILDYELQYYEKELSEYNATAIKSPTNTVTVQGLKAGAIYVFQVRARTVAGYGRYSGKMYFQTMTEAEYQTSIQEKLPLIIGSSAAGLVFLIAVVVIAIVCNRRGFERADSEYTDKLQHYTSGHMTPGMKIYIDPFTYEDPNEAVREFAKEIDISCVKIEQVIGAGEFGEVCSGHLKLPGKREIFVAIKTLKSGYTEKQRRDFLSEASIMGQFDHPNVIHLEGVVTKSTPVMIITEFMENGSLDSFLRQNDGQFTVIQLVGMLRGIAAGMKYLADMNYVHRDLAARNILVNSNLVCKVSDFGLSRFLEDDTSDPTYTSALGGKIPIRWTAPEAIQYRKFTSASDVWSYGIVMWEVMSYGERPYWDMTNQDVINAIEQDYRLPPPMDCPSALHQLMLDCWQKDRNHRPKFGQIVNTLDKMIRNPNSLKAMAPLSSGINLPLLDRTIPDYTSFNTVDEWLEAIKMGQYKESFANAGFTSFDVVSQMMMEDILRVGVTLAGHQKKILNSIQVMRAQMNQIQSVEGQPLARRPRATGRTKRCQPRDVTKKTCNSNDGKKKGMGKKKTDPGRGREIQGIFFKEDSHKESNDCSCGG
Fyn, sequence (P06241 whole entry, looked up): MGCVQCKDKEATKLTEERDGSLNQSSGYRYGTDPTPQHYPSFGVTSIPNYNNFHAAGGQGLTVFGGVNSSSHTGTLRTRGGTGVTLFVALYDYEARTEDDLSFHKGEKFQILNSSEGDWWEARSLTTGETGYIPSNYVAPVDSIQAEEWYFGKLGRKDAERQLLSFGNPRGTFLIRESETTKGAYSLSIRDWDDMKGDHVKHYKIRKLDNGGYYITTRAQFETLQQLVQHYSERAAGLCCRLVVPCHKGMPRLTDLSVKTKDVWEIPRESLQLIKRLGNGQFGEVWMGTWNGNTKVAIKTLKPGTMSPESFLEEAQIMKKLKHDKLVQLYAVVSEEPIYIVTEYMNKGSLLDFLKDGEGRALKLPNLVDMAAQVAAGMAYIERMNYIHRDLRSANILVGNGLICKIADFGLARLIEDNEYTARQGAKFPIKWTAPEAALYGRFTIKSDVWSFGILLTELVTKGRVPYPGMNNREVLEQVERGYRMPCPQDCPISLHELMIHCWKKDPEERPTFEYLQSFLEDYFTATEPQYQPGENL
Hck, sequence (P08631 whole entry, looked up): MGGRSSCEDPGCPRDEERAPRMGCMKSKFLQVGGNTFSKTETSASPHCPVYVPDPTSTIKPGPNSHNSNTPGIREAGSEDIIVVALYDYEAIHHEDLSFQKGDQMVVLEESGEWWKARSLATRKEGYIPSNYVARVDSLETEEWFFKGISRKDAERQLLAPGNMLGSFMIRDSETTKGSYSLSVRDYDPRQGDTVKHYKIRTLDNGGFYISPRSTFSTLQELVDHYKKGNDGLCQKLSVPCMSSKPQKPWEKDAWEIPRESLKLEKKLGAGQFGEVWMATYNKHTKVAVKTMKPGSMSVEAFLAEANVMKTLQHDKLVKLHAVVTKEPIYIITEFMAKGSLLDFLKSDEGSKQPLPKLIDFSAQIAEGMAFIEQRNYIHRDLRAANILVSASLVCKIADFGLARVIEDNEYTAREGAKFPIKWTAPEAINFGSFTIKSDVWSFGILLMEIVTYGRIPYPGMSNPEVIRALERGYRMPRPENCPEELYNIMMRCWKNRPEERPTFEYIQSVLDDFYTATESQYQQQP

Sequence | SH2 binding enrichment (c-Src SH2) | SH2 binding enrichment (SHP2-C SH2) | SH2 binding enrichment (Grb2 SH2) | phosphorylation enrichment (FGFR1) | phosphorylation enrichment (Jak2) | phosphorylation enrichment (EPHB2) | phosphorylation enrichment (c-Abl (mouse)) | phosphorylation enrichment (MERTK) | phosphorylation enrichment (FGFR3) | phosphorylation enrichment (AncSZ) | phosphorylation enrichment (Hck) | phosphorylation enrichment (Fes) | phosphorylation enrichment (EPHB1) | phosphorylation enrichment (Fyn) | phosphorylation enrichment (c-Src) | phosphorylation enrichment (Fer (mouse))
ACLSLYGGFVE [MVD_Y164_R161L] | 0.464 | 0.661 | 0.834 | 0.681 | 1.92 | 1.13 | 1.46 | 0.607 | 1.31 | 1.67 | 3.83 | 2.02 | 1.21 | 5.43 | 4.75 | 0.817
ADAHHYLCKEV [JAK2_Y382] | 0.518 | 0.626 | 0.849 | 0.588 | 0.837 | 0.752 | 0.644 | 0.429 | 0.554 | 0.678 | 0.549 | 0.879 | 0.851 | 0.485 | 0.543 | 0.488
ADARMYGVLPW [PLP1_Y207] | 0.443 | 0.7 | 1.05 | 0.511 | 0.7 | 2.48 | 1.24 | 3.38 | 0.545 | 0.793 | 9.33 | 0.84 | 0.945 | 9.58 | 6.65 | 0.594
ADEEEYEIIAA [FEStide_E_2014] | 0.521 | 0.97 | 0.711 | 0.635 | 1.45 | 0.683 | 1.09 | 0.564 | 1.08 | 1.74 | 0.654 | 1.32 | 0.662 | 0.619 | 0.724 | 0.73
ADGLEYPRTGL [MMUT_Y287_S288P] | 0.465 | 0.598 | 0.679 | 0.414 | 0.495 | 0.55 | 0.528 | 0.319 | 0.59 | 0.722 | 0.47 | 0.835 | 0.425 | 0.508 | 0.288 | 0.47
ADLVQYFMEHH [PTPN11_Y80_E76D_YF] | 0.612 | 0.961 | 0.902 | 0.501 | 1 | 0.545 | 0.8 | 0.394 | 0.708 | 1.1 | 0.53 | 1.06 | 0.654 | 0.784 | 0.517 | 0.46
ADPQEYIPLPA [JAKtide_2014] | 0.571 | 0.809 | 1 | 0.75 | 0.865 | 0.49 | 0.628 | 0.425 | 0.693 | 0.904 | 0.549 | 0.983 | 0.529 | 0.512 | 0.468 | 0.457
ADVLDYIKALN [HPRT1_Y81_L78V] | 0.553 | 0.869 | 0.76 | 0.532 | 0.748 | 0.534 | 0.467 | 0.542 | 0.629 | 0.756 | 0.489 | 0.814 | 0.459 | 0.507 | 0.463 | 0.415
AEMKRYSESSS [RAI14_Y869_A870S] | 0.541 | 0.767 | 0.744 | 0.681 | 0.678 | 0.329 | 0.43 | 0.337 | 0.523 | 0.524 | 0.37 | 0.638 | 0.308 | 0.503 | 0.382 | 0.38
AEPPDYSPVTQ [ADGRG2_Y285_H290Q] | 0.441 | 0.93 | 0.82 | 0.514 | 0.95 | 0.626 | 0.99 | 0.342 | 0.717 | 1.46 | 0.557 | 1.16 | 0.435 | 0.444 | 0.522 | 0.546
AFDNLYYWDQD [ERBB2_Y1221] | 0.446 | 0.698 | 0.807 | 9.23 | 1.55 | 4.41 | 0.81 | 7.32 | 9.6 | 2.31 | 5.36 | 2.42 | 5.88 | 6.31 | 5.67 | 3.07
AFLEDYFTSTE [SRC_Y522] | 0.578 | 0.959 | 0.967 | 1.16 | 1.46 | 0.606 | 1.31 | 0.578 | 1.42 | 1.91 | 0.549 | 1.83 | 0.598 | 0.54 | 0.783 | 0.572
AFRRGYFDEEM [PLEC_Y2971_YF] | 0.636 | 0.334 | 0.73 | 0.633 | 1.7 | 0.616 | 0.763 | 0.551 | 0.673 | 1.58 | 0.599 | 1.29 | 0.514 | 0.622 | 0.6 | 0.445
AGQEEYSAMRD [HRAS_Y64] | 0.679 | 0.643 | 0.816 | 0.477 | 0.788 | 0.547 | 0.678 | 0.418 | 0.591 | 0.879 | 0.498 | 0.931 | 0.507 | 0.462 | 0.456 | 0.429
